Drawing on publication PMC5426849, this text covers Kd for 5 substances.

This assay addresses fluoresceinated cortactin phospho-Y482 peptide. Put plainly: fluorescence polarisation.
What is called Kd is the constant that tells how readily two partners part at equilibrium. A low value points to higher affinity. In turn, “PLCγ C-terminal SH2 domain, cleaved from GST (domain or fragment)” registered a Kd greater than 5 µM.

Consider “p85α C-terminal SH2 domain, cleaved from GST (domain or fragment)”, for which the Kd is greater than 5 µM. With “Abl SH2 domain, monomeric, cleaved from GST (from UniProt P00519 127-217) (domain or fragment)” the figure was greater than 5 µM. The substance “p85α N-terminal SH2 domain, cleaved from GST (domain or fragment)” had a Kd greater than 5 µM. As for “PLCγ N-terminal SH2 domain, cleaved from GST (domain or fragment)”, the figure is greater than 5 µM.
